Experimental data published in article PMC5270629.

Legend:
[1] = target: recombinant von Willebrand factor (VWF) A2 domain polypeptide, A2_(1481-1668) (human) (UniProt P04275); test: ELISA
fibrin monomer = fibrin monomer (UniProt P02675); test: ELISA

Chain of recombinant von Willebrand factor (VWF) A2 domain polypeptide, A2_(1481-1668) (P04275 1481-1668): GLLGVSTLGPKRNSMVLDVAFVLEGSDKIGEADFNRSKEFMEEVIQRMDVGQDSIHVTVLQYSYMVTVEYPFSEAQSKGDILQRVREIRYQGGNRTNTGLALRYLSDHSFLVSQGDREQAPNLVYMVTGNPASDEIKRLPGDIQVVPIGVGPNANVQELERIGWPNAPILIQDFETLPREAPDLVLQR
Chain of recombinant von Willebrand factor (VWF) A2 domain polypeptide, A2_(1481-1668) (human) (P04275 1481-1668): as above

| Substance | EC50 [1] [nM] | EC50 (fibrin monomer) [nM] |
| --- | --- | --- |
| fibrin monomer (from UniProt P02675 45-491; P02679 27-453) (complex) | 7 |  |
| recombinant von Willebrand factor (VWF) A2 domain polypeptide, A2_(1481-1668) (from UniProt P04275 1481-1668) (domain or fragment) |  | 60 |
